Assay results reported in article PMC9772109.

Target: recombinant stabilized HA trimer of H1N1 virus A/Solomon Islands/3/2006 (H1 SI06) (influenza A virus A/Solomon Islands/3/2006 (H1N1))
Assay: cryo-EM structure

“recombinant stabilized HA trimer of H1N1 virus A/Solomon Islands/3/2006 (H1 SI06) (natural protein)” was tested, and the stoichiometry N was 3.
